In publication PMC6297170:

Biological target: lysine decarboxylase CadA from Vibrio vulnificus (Vibrio vulnificus)
Assay: SEC; Sephacryl S-300 HR column on FPLC, 0.5 mL/min, 50 mM MES/100 mM NaCl pH 6.5; standards IgM 970 kDa, thyroglobulin 669 kDa, ferritin 440 kDa, catalase 232 kDa, aldolase 140 kDa; self-association of the purified enzyme

Work on “lysine decarboxylase CadA from Vibrio vulnificus (from UniProt A0A3Q0L4X5 1-797) (enzyme)” yielded a stoichiometry N of 10.
